One block for each binder: values may come before it.
How the values were obtained:
[1] = biological target: T1, HLA-A2.1 (HLA-A*0201) on the surface of T2 cells (human)
T1 construct: also called surface HLA-A2.1 on T2

[2] = biological target: T2, HLA-A2.1 heavy chain with I125-labeled beta2-microglobulin (heterotrimer complex assay) (human, I125-labeled); test: dissociation of I125-labeled beta2-microglobulin from heavy chain/peptide/beta2m complex, HPLC gel filtration
T2 construct: Cell-free assay; also called heterotrimer complex of the HLA-A2.1 heavy chain, peptide, and beta2-microglobulin

FI CCNE2144-152/FI PR1 (fluorescence ratio against PR1) [1]: 1.19 ratio
B1: CCNE2 144-152 (cyclin E2 derived nonameric peptide) (peptide)
peptide: ILLDWLLEV
notes: also called cyclin E2 peptide

T1/2 (binding half-life) [2]: 1460 min
B2: PR1 peptide (proteinase 3 aa 169-177, VLQELNVTV) (peptide)
peptide: VLQELNVTV
notes: Synthetic peptide, minimum 95% purity

T1/2 (binding half-life) [2]: 140 min
B3: PR2 peptide (proteinase 3 derived, RLFPDFFTRV as printed in Table 4) (peptide)
peptide: RLFPDFFTRV

Source: US20060045881A1 (University of Texas, published 2006)
